Reference: US20050221400A1

Biological target: PSCA (prostate stem cell antigen), human, PSCA v.1 (human) (UniProt O43653)
Assay: FACS titration on SW780 cells, anti-hIgG-PE, Graphpad Prism sigmoidal dose-response fit

Kd [pM]	Binder
280	Ha1-5.99 (antibody, IgG2, V domains shown) VH: QVHLQQWGAGLLKPSETLSLTCAVYGGSFSGYYWSWIRQPPGKGLEWIGEINHSGSTSYKPSLKSRVTVSVDTSKNQFSLKLSYVTAADTAVYYCARDRGDYGDFLFDYWGQGTLVTVSS VL: SPGERATLSCRASQSIGSTYLAWYQQKPGQAPRLLIYGASSRATGIPERFSGSGSGTDFTLTISGLEPEDFAVFYCQQCGSSPPTFGQGTKVEIKR
230	Ha1-4.37 (antibody, V domains shown) VH: PGALQESGPGLVRPSQTLSLTCTVSGGSISSGGTYYWIWIRQHPGKGLEWIGYIYYSGSTYYNPSLKSRVTISVDTSKNQFSLKLSSVTAADTAVYYCARDGITMVRGISGGMDVWGQGTTVTVSS VL: ASVGDRVTITCRASQSISSHLNWYQQKPGKAPKLLIYAASSLQSGVPSRFSGSGSGTDFTLSISSLQPEDFATYFCQQSYSIPRTFGQGTKVEITR
